Data published in patent US20020045192A1, “Arf and HDM2 interaction domains and methods of use thereof” (St. Jude Children's Research Hospital, priority 2001, published 2002).

T1: mArfN37 (Mus musculus, UniProt Q64364)
T1 construct: An N-terminal fragment of mouse p19^Arf corresponding to residues 1-37 (mArfN37) was purified in a similar manner; made in house
T1 sequence (Q64364 1-37 limits assumed): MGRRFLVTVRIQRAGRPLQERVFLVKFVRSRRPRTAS

T2: GFP-p19^Arf (Mus musculus, UniProt Q64364)
T2 construct: expressed in transfected cells; host or cells: NIH 3T3 Arf-/- cells
T2 sequence (Q64364 1-169): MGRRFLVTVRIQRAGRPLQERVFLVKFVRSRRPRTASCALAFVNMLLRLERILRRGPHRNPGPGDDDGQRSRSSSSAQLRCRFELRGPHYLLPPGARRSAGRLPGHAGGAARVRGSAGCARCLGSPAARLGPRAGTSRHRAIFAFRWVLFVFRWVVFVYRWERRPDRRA


Tests used:
mArfN37 = molecular target: T1, mArfN37; test: SPR binding of Hdm2 constructs and Hdm2 peptides to immobilized His-tagged mArfN37; conditions: His-mArfN37 captured by covalently linked His antibody
Procedure: Binding studies were performed using a Biacore 3000 surface plasmon resonance (SPR) instrument (Biacore, Inc.). A Tetra-His™ Antibody (Qiagen, Inc.; Cat. #34670) was covalently attached to a carboxymethylated gold surface (C-1 chip; Biacore, Inc.). The carboxymethyl groups on the surface were activated with N-ethyl-N′-(3-dimethylaminopropyl) carbodiimide (EDC) and N-hydroxysuccinimide (NHS) and the antibody was attached at pH 7.4 in 20 mM sodium phosphate buffer, 150 mM NaCl (PBS). Reactive sites remaining on the surface were blocked by reaction with ethanolamine. […] Binding was measured by flowing the non-His-tagged analyte through the reference and ligand-containing flow cells in sequence. […] Changes in the SPR response due to solvent differences and the injection process were monitored by injection of HBS-N buffer alone. […]
It has been previously shown that a fragment of mouse p19^Arf containing the N-terminal 37 amino acids (mArfN37) can (i) bind Hdm2, (ii) cause the relocalization of Hdm2 to nucleoli, and (iii) induce cell cycle arrest in MEFs [see, U.S. patent application Ser. No. 09/480,718, Filed Jan. […] However, because mArfN37 is a relatively small polypeptide, it was determined whether it could bind a correspondingly small segment of Hdm2. […]

GFP-p19^Arf = molecular target: T2, GFP-p19^Arf; test: Nuclear microinjection and live cell imaging of Texas Red labeled Hdm2 constructs in NIH 3T3 cells lacking Arf; format: cell-based; conditions: NIH 3T3 Arf-/- cells, nuclear microinjection
Procedure: Proteins for fluorescence microimaging studies were covalently modified using an amine-reactive, sulfosuccinimidyl ester of Texas Red™ (Molecular Probes, Inc., Cat. # C-1171). In brief, purified Hdm2-derived proteins were dialyzed into 100 mM sodium bicarbonate buffer, pH 8.3 at 2-4 mg/ml. The Texas Red™ dye was dissolved in dimethylsulfoxide at 10 mg/ml. Protein and dye 3:1 (vol:vol) were reacted for 1 hour at room temperature followed by purification using size-exclusion chromatography (NAP 5 G-25 columns, Amersham Pharmacia Biotech, Inc.). Labeled protein bands migrated more slowly than unlabeled protein in SDS-polyacrylamide gels consistent with the covalent attachment of dye.
NIH 3T3 Arf^−/− cells passage 10-15 were cultured in Dulbecco's modified Eagle's medium (Dulbecco's modified Eagle's medium (DMEM); Gibco-Invitrogen, Inc.), 10% fetal bovine serum (FBS) at 37° C., 7% CO2. 24 hours prior to transfection, cells were plated on 35 mm dishes coated with poly-D-Lysine (Mattek, Corp.) at a density of 3×10^4 cells per dish. […] An Axiovert 135 TV inverted fluorescence microscope with an automated stage controller (Carl Zeiss, Inc.) and circulating water bath heater (Fisher) was used for both microinjection and imaging. […]

Molecule	binding to His-tagged mArfN37 immobilized on the SPR biosensor surface (mArfN37)	localization of Texas Red labeled Hdm2 construct when GFP-p19^Arf is expressed (GFP-p19^Arf)
Hdm2 210-275: Fragment of Hdm2 corresponding to residues 210-275 of SEQ ID NO:8 (protein, listed as Homo sapiens) SSSSESTGTPSNPDLDAGVSEHSGDWLDQDSVSDQFSVEFEVESLDSEDYSLSEEGQELSDEDDEV	bind tightly	nucleolar localization
Hdm2 277-350: Texas Red labeled Hdm2 deletion construct containing residues 277-350 (protein) QVTVYQAGESDTDSFEEDPEISLADYWKCTSCNEMNPPLPSHCNRCWALRENWLPEDKGKDKGEISEKAKLENS		localized in the nucleoplasm rather than in nucleoli
